Tests used:
[1] = target: T1, hu-IL-36γ-Avi (in-vivo biotinylated) (human, site-specifically biotinylated in vivo on the C-terminal AviTag (BirA)); assay: SPR (Biacore 8K), in-vivo biotinylated IL-36-Avi captured on CAP chip, bispecific IgG injected, 25°C
T1 construct: also called biotinylated human IL-36γ-Avi
T1 chain: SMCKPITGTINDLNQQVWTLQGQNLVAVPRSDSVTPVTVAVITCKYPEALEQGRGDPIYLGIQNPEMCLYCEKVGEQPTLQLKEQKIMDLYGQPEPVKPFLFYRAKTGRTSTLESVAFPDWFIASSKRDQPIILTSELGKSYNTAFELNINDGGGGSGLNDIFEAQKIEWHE
Description: (§1) Surface plasmon resonance (SPR) analysis was used to determine the binding affinity for human and cynomolgus monkey IL-36 (“hu-IL-36” and “cy-IL-36,” respectively) using a BIACORE™ 8K instrument as described in Example 2. […] Briefly, a 1:4 dilution of Biotin CAPture Reagent (GE Healthcare) into HBS-EP buffer (0.01 M HEPES pH 7.4, 0.15 M NaCl, 3 mM EDTA, 0.005% Surfactant P20) was applied to a CAP sensor chip at 2 μL/min flow rate. For kinetics measurements, 1 nM biotinylated human and cyno IL-36α-Avi, IL-36γ-Avi; 0.8 nM biotinylated human and cyno IL-36β-Avi were captured at 10 μL/min to achieve 15-25 response units in the second flow cell (FC2). FC1 was kept as a reference. […] The sensorgram was recorded and subject to reference and buffer subtraction before data analysis with the BIACORE® 8K Evaluation Software (version 1.1.1.7442). […] Association rates (kₒₙ) and dissociation rates (koff) were calculated using a simple one-to-one Langmuir binding model. The equilibrium dissociation constant (KD) was calculated as the ratio of koff/kₒₙ.

[2] = target: T2, hu-IL-36α-Avi (in-vivo biotinylated) (human, site-specifically biotinylated in vivo on the C-terminal AviTag (BirA)); assay: as above
T2 construct: also called biotinylated human IL-36α-Avi
T2 chain: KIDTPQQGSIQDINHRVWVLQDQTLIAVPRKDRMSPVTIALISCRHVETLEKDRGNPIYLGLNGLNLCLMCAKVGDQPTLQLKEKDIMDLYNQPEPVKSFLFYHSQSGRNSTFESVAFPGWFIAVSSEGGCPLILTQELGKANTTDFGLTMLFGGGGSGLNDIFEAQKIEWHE
Description: as §1

[3] = target: T3, hu-IL-36β-Avi (in-vivo biotinylated) (human, site-specifically biotinylated in vivo on the C-terminal AviTag (BirA)); assay: as above
T3 construct: also called biotinylated human IL-36β-Avi
T3 chain: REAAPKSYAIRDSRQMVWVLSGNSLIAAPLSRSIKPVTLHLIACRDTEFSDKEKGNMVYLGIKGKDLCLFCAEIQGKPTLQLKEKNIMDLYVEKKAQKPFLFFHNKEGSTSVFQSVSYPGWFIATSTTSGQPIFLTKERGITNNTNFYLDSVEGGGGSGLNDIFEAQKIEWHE
Description: as §1

[4] = target: T4, cy-IL-36α-Avi (in-vivo biotinylated) (cynomolgus monkey, limits assumed, site-specifically biotinylated in vivo on the C-terminal AviTag (BirA)); assay: as above
T4 construct: also called biotinylated cyno IL-36α-Avi
T4 chain: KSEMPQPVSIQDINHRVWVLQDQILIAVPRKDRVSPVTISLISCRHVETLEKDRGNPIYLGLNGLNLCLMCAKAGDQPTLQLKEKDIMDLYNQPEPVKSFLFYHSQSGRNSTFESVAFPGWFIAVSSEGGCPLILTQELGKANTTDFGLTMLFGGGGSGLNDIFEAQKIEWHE
Description: as §1

[5] = target: T5, cy-IL-36γ-Avi (in-vivo biotinylated) (cynomolgus monkey, limits assumed, site-specifically biotinylated in vivo on the C-terminal AviTag (BirA)); assay: as above
T5 construct: also called biotinylated cyno IL-36γ-Avi
T5 chain: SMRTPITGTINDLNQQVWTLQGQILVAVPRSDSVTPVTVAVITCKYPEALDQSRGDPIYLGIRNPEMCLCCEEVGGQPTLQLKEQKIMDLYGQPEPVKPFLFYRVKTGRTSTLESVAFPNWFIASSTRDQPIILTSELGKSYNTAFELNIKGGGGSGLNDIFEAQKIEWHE
Description: as §1

[6] = target: T6, hu-IL-36β (human IL-36β, N-terminally truncated active form R5-E157) (human); assay: cell-based or functional assay
T6 chain: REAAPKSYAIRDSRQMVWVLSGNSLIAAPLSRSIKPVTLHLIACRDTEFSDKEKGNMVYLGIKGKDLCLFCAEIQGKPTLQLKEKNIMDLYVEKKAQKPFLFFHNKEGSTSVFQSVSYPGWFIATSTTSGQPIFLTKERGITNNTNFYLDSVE

[7] = target: T7, hu-IL-36γ (human IL-36γ, N-terminally truncated active form S18-D169) (human, UniProt Q9NZH8 18-169); assay: cell-based or functional assay
T7 sequence: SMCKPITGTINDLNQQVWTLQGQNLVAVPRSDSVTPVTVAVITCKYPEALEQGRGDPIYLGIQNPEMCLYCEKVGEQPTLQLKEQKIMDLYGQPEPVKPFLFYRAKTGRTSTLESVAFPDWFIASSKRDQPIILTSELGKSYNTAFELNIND

[8] = target: T8, hu-IL-36α (human IL-36α, N-terminally truncated active form K6-F158) (human, UniProt Q9UHA7 6-158); assay: cell-based or functional assay
T8 sequence: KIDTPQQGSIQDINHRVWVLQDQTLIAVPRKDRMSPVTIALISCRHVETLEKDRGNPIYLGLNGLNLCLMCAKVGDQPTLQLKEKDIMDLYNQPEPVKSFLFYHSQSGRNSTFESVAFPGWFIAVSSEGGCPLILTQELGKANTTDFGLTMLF

- Kd [1]: 0.72 nM
- koff [1]: 0.000122 s⁻¹
- kon [1]: 171000 M⁻¹ s⁻¹
- Kd [2]: 1.17 nM
- koff [2]: 0.000157 s⁻¹
- kon [2]: 134000 M⁻¹ s⁻¹
- Kd [3]: 0.63 nM
- koff [3]: 4.77e-05 s⁻¹
- kon [3]: 76000 M⁻¹ s⁻¹
- Kd [4]: 1.93 nM
- koff [4]: 0.000335 s⁻¹
- kon [4]: 174000 M⁻¹ s⁻¹
- Kd [5]: 0.79 nM
- koff [5]: 0.00013 s⁻¹
- kon [5]: 165000 M⁻¹ s⁻¹
- % inhibition of IL-8 production in HEKa cells at 8 nM antibody [6]: 100%
- % inhibition of IL-8 production in HaCat cells at 8 nM antibody [6]: 100%
- IC50, IL-36-mediated IL-8 production in HaCat cells [6]: ~0.13 nM
- IC50, IL-36-mediated IL-8 production in primary human adult keratinocytes (HEKa) [6]: ~0.11 nM
- % inhibition of IL-8 production in HEKa cells at 8 nM antibody [7]: 100%
- % inhibition of IL-8 production in HaCat cells at 8 nM antibody [7]: 100%
- IC50, IL-36-mediated IL-8 production in HaCat cells [7]: ~1.1 nM
- IC50, IL-36-mediated IL-8 production in primary human adult keratinocytes (HEKa) [7]: ~2.7 nM
- % inhibition of IL-8 production in HEKa cells at 8 nM antibody [8]: 100%
- % inhibition of IL-8 production in HaCat cells at 8 nM antibody [8]: 100%
- IC50, IL-36-mediated IL-8 production in HaCat cells [8]: ~0.38 nM
- IC50, IL-36-mediated IL-8 production in primary human adult keratinocytes (HEKa) [8]: ~0.56 nM
B1: mAb2.10/mAb6_2.7 multispecific common light chain antibody (IgG, knobs-into-holes, N297G) (bispecific antibody)
heavy 1: not shown
heavy 2: not shown
light: ESVLTQPPSVSGAPGQRVTISCTGSSSNIGAHYDVHWYQQLPGTAPKLLIYGNDNRPSGVPDRFSGSKSGTSASLAITGLQAEDEADYYCQSYDYSLSGYVFGGGTKLTVLGQPKAAPSVTLFPPSSEELQANKATLVCLISDFYPGAVTVAWKADSSPVKAGVETTTPSKQSNNKYAASSYLSLTPEQWKSHKSYSCQVTHEGSTVEKTVAPTECS
notes: tags removed; also called mAb2.10/mAb6_2.7 IgG; anti-IL-36 multispecific antibody
